No end group written: not given here.
B1: p21μ–RD2 (designed binder)
peptide: KRRQTRITEYFHSKR-NH2
B2: p21μ–F150H (peptide)
peptide: KRRQTSMTDHYHSKR-NH2
B3: p21μ–TS145/146RR (peptide)
peptide: KRRQRRMTDFYHSKR-NH2
B4: p21μ–Q144N (peptide)
peptide: KRRNTSMTDFYHSKR-NH2
B5: p21μ–T145R (peptide)
peptide: KRRQRSMTDFYHSKR-NH2
B6: p21μ–TS145/146KR (peptide)
peptide: KRRQKRMTDFYHSKR-NH2
B7: p21μ–TD148/149DE (peptide)
peptide: KRRQTSMDEFYHSKR-NH2
B8: p21μ–TS145/146RK (peptide)
peptide: KRRQRKMTDFYHSKR-NH2
B9: p21μ–T148E (peptide)
peptide: KRRQTSMEDFYHSKR-NH2
B10: p21μ–Q144D (peptide)
peptide: KRRDTSMTDFYHSKR-NH2
B11: p21μ–T145K (peptide)
peptide: KRRQKSMTDFYHSKR-NH2
B12: p21μ–FY150/151YF (peptide)
peptide: KRRQTSMTDYFHSKR-NH2
B13: p21μ–TD148/149EE (peptide)
peptide: KRRQTSMEEFYHSKR-NH2
B14: p21μ–M147I (peptide)
peptide: KRRQTSITDFYHSKR-NH2
B15: p21μ–pol η (peptide)
peptide: KRRMQTLESFFHSKR-NH2
B16: p21μ–Cdt1 (peptide)
peptide: KRRQRRVTDFFHSKR-NH2
B17: p21μ–Pogo (peptide)
peptide: KRRQKKITDYFHSKR-NH2

Target: T1, human Proliferating Cell Nuclear Antigen (hPCNA) (human, UniProt P12004)
T1 sequence (P12004 1-259): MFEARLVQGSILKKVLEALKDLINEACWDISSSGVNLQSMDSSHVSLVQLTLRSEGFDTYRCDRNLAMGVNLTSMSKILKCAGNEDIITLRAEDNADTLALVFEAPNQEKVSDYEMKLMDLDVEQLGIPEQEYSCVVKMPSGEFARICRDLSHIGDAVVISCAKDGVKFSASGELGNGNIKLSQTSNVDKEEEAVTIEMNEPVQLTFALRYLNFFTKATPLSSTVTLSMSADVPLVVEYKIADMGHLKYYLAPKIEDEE
Test: SPR
Settings: not given

Row | Molecule | Kd | fold decrease in affinity relative to p21μ | fold lower affinity than p21μ
1 | B1 | 1.12 nM |  | 
2 | B2 | 159 nM |  | 
3 | B3 | 1.83 nM |  | 
4 | B4 | 772 nM |  | 
5 | B5 |  | 7 fold | 
6 | B6 | 37 nM |  | 
7 | B7 |  |  | 28 fold
8 | B8 | 17.3 nM |  | 
9 | B9 |  |  | ~6 fold
10 | B10 | 714 nM |  | 
11 | B11 |  | 8 fold | 
12 | B12 | 2.18 nM |  | 
13 | B13 |  |  | 4 fold
14 | B14 | 11.1 nM |  | 

Target: T1, human Proliferating Cell Nuclear …
Test: SPR
Settings: not given
Remark: another data set of the same source

Row | Molecule | Kd
15 | B15 | 2540 nM
16 | B16 | 8.76 nM
17 | B17 | 8.82 nM

Target: hPCNA (Homo sapiens, UniProt P12004)
Sequence (P12004 whole entry): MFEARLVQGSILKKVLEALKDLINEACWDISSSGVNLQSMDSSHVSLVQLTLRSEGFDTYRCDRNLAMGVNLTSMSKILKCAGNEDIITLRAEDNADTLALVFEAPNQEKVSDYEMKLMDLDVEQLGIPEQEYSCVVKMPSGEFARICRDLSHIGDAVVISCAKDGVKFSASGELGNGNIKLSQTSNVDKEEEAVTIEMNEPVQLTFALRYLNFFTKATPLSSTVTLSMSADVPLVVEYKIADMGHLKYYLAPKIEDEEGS
Test: not given
Settings: isothermal calorimetry; ref [22]; cited from earlier work

Row | Molecule | fold decrease in binding affinity compared with the analogous native peptide (residues 139–160)
18 | Tyr151Phe^P8–modified p21 peptide: literature p21 (residues 139–160) peptide with Tyr151Phe modification (GRKRRQTSMTDFFHSKRRLIFS; UniProt P38936 139-160, looked up, variant Y151F) [reference compound] | 3 fold

Same assay, conditions: p21 protein binding hPCNA; ref [13], [14], [15]; cited from earlier work

Row | Molecule | Kd
19 | p21: cell-cycle regulator protein, highest affinity hPCNA-interacting protein known | 2.5 to 90 nM

— PMC8191301 (The Journal of Biological Chemistry, 2021)
